Results reported in patent publication US20080313749A1.

Tests used:
[1] = biological target: … (SEQ ID NO:109), scaffold-bound CCR5-derived peptide 1158; test: peptide microarray ELISA, 2D7 at 10 µg/ml
[2] = biological target: … (SEQ ID NO:107), scaffold-bound CCR5-derived peptide 1159; test: peptide microarray ELISA, 2D7 at 10 µg/ml
[3] = biological target: … (SEQ ID NO:106), scaffold-bound CCR5-derived peptide 702; test: peptide microarray ELISA, 2D7 at 10 µg/ml
[4] = biological target: … (SEQ ID NO:104), scaffold-bound CCR5-derived peptide 1160; test: peptide microarray ELISA, 2D7 at 10 µg/ml
[5] = biological target: … (SEQ ID NO:102), scaffold-bound CCR5-derived peptide 443; test: peptide microarray ELISA, 2D7 at 10 µg/ml
[6] = biological target: … (SEQ ID NO:105), scaffold-bound CCR5-derived peptide 450; test: peptide microarray ELISA, 2D7 at 10 µg/ml
[7] = biological target: … (SEQ ID NO:101), scaffold-bound CCR5-derived peptide 447; test: peptide microarray ELISA, 2D7 at 10 µg/ml
[8] = biological target: … (SEQ ID NO:108), scaffold-bound CCR5-derived peptide 719; test: peptide microarray ELISA, 2D7 at 10 µg/ml
[9] = biological target: … (SEQ ID NO:103), scaffold-bound CCR5-derived peptide 449; test: peptide microarray ELISA, 2D7 at 10 µg/ml
[10] = biological target: … (SEQ ID NO:109), scaffold-bound CCR5-derived peptide 1158; test: peptide microarray ELISA, 2D7 at 1 µg/ml
[11] = biological target: … (SEQ ID NO:107), scaffold-bound CCR5-derived peptide 1159; test: peptide microarray ELISA, 2D7 at 1 µg/ml
[12] = biological target: … (SEQ ID NO:106), scaffold-bound CCR5-derived peptide 702; test: peptide microarray ELISA, 2D7 at 1 µg/ml
[13] = biological target: … (SEQ ID NO:104), scaffold-bound CCR5-derived peptide 1160; test: peptide microarray ELISA, 2D7 at 1 µg/ml
[14] = biological target: … (SEQ ID NO:102), scaffold-bound CCR5-derived peptide 443; test: peptide microarray ELISA, 2D7 at 1 µg/ml
[15] = biological target: … (SEQ ID NO:105), scaffold-bound CCR5-derived peptide 450; test: peptide microarray ELISA, 2D7 at 1 µg/ml
[16] = biological target: … (SEQ ID NO:101), scaffold-bound CCR5-derived peptide 447; test: peptide microarray ELISA, 2D7 at 1 µg/ml
[17] = biological target: … (SEQ ID NO:108), scaffold-bound CCR5-derived peptide 719; test: peptide microarray ELISA, 2D7 at 1 µg/ml
[18] = biological target: … (SEQ ID NO:103), scaffold-bound CCR5-derived peptide 449; test: peptide microarray ELISA, 2D7 at 1 µg/ml
[19] = biological target: … (SEQ ID NO:109), scaffold-bound CCR5-derived peptide 1158; test: peptide microarray ELISA, 2D7 at 0.1 µg/ml
[20] = biological target: … (SEQ ID NO:107), scaffold-bound CCR5-derived peptide 1159; test: peptide microarray ELISA, 2D7 at 0.1 µg/ml
[21] = biological target: … (SEQ ID NO:106), scaffold-bound CCR5-derived peptide 702; test: peptide microarray ELISA, 2D7 at 0.1 µg/ml
[22] = biological target: … (SEQ ID NO:104), scaffold-bound CCR5-derived peptide 1160; test: peptide microarray ELISA, 2D7 at 0.1 µg/ml
[23] = biological target: … (SEQ ID NO:102), scaffold-bound CCR5-derived peptide 443; test: peptide microarray ELISA, 2D7 at 0.1 µg/ml
[24] = biological target: … (SEQ ID NO:105), scaffold-bound CCR5-derived peptide 450; test: peptide microarray ELISA, 2D7 at 0.1 µg/ml
[25] = biological target: … (SEQ ID NO:101), scaffold-bound CCR5-derived peptide 447; test: peptide microarray ELISA, 2D7 at 0.1 µg/ml
[26] = biological target: … (SEQ ID NO:108), scaffold-bound CCR5-derived peptide 719; test: peptide microarray ELISA, 2D7 at 0.1 µg/ml
[27] = biological target: … (SEQ ID NO:103), scaffold-bound CCR5-derived peptide 449; test: peptide microarray ELISA, 2D7 at 0.1 µg/ml

… (SEQ ID NO:108), scaffold-bound CCR5-derived peptide 719, sequence (peptide, as listed by the source): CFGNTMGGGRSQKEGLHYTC

anti-CCR5 antibody 2D7
microarray ELISA signal (absorbance 405 nm, CCD camera) [1]: 2380 | microarray ELISA signal (absorbance 405 nm, CCD camera) [2]: 2640 | microarray ELISA signal (absorbance 405 nm, CCD camera) [3]: 2790 | microarray ELISA signal (absorbance 405 nm, CCD camera) [4]: 2760 | microarray ELISA signal (absorbance 405 nm, CCD camera) [5]: 3090 | microarray ELISA signal (absorbance 405 nm, CCD camera) [6]: 2850 | microarray ELISA signal (absorbance 405 nm, CCD camera) [7]: 2940 | microarray ELISA signal (absorbance 405 nm, CCD camera) [8]: 2820 | microarray ELISA signal (absorbance 405 nm, CCD camera) [9]: 2890 | microarray ELISA signal (absorbance 405 nm, CCD camera) [10]: 416 | microarray ELISA signal (absorbance 405 nm, CCD camera) [11]: 1150 | microarray ELISA signal (absorbance 405 nm, CCD camera) [12]: 1580 | microarray ELISA signal (absorbance 405 nm, CCD camera) [13]: 2470 | microarray ELISA signal (absorbance 405 nm, CCD camera) [14]: 2640 | microarray ELISA signal (absorbance 405 nm, CCD camera) [15]: 2360 | microarray ELISA signal (absorbance 405 nm, CCD camera) [16]: 2710 | microarray ELISA signal (absorbance 405 nm, CCD camera) [17]: 678 | microarray ELISA signal (absorbance 405 nm, CCD camera) [18]: 2610 | microarray ELISA signal (absorbance 405 nm, CCD camera) [19]: 132 | microarray ELISA signal (absorbance 405 nm, CCD camera) [20]: 213 | microarray ELISA signal (absorbance 405 nm, CCD camera) [21]: 68 | microarray ELISA signal (absorbance 405 nm, CCD camera) [22]: 315 | microarray ELISA signal (absorbance 405 nm, CCD camera) [23]: 148 | microarray ELISA signal (absorbance 405 nm, CCD camera) [24]: 107 | microarray ELISA signal (absorbance 405 nm, CCD camera) [25]: 261 | microarray ELISA signal (absorbance 405 nm, CCD camera) [26]: 113 | microarray ELISA signal (absorbance 405 nm, CCD camera) [27]: 99
